For one series, the target named is T1, aromatase (Aro) (Homo sapiens, UniProt P11511).
T1 construct: gene CYP19A1; recombinant human aromatase; with human cytochrome P450 reductase (hCPR), electron donor
Put plainly: estrone competitive ELISA with purified aromatase and CPR. It is filed as biochemical. The note with it: read-out: % residual activity at 1000 nM.

Series [1] deals with C[C@]12CCC(=O)C=C1CC[C@@H]1[C@@H]2CC[C@]2(C)C(=O)CC[C@@H]12. Kind of series: purified protein. The settings on record: heme; NADPH active site.

T1 sequence (P11511 whole entry): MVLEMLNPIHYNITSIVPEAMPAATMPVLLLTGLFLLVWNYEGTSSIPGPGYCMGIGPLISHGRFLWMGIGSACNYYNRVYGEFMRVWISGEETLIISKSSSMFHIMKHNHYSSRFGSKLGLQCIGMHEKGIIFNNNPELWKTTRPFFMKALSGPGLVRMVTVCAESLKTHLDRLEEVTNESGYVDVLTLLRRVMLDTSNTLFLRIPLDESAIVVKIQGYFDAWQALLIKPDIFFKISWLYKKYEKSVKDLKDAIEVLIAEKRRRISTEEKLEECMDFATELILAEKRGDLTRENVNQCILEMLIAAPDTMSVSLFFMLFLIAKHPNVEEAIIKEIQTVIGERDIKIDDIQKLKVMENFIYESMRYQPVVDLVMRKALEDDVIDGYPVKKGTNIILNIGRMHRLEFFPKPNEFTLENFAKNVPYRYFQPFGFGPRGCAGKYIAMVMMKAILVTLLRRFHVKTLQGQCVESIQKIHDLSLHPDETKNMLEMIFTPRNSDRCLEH
T1 sequence (P16435 2-677, further chain): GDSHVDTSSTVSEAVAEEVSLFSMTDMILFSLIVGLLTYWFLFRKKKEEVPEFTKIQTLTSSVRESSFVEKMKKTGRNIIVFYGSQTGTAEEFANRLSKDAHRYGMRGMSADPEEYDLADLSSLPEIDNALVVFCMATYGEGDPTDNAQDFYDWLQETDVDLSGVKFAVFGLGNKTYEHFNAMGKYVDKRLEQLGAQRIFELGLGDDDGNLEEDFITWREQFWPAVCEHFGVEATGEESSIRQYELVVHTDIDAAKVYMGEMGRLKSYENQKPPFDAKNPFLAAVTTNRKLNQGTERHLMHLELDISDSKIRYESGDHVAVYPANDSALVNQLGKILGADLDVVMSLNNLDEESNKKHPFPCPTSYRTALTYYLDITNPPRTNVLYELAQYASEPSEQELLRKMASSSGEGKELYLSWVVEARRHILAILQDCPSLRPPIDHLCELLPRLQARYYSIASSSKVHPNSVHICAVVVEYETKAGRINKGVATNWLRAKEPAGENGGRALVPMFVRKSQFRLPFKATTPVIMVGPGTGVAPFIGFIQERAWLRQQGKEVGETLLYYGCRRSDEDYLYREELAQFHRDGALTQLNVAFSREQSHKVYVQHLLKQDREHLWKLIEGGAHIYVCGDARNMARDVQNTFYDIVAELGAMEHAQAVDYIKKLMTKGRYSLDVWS

In the case of `CC(C)(C#N)c1cc(Cn2cncn2)cc(C(C)(C)C#N)c1` [anastrozole], the remaining activity at 1 µM at aromatase (Aro) came to 0.7%. Turning to aromatase (Aro) (Homo sapiens), in series [1], the Km worked out at 0.0413 ± 0.0082 µM and the kcat amounted to 0.0003 ± 1.67e-05 s⁻¹.

The record behind these values is PMC7459580, “Molecular Basis for Endocrine Disruption by Pesticides Targeting Aromatase and Estrogen Receptor” (International Journal of Environmental Research and Public …, 2020).
